# Experimental data taken from patent US20190194338A1 (Seagen, published 2019).
# T1: human BCMA expressed on cells (NCI-H929, U266, JJN3, 293:BCMA) (human, UniProt Q02223 1-184)
# T1 construct: Endogenous BCMA on myeloma lines or full-length BCMA clone in HEK 293 cells; also called B-cell maturation antigen; CD269
# T1 sequence: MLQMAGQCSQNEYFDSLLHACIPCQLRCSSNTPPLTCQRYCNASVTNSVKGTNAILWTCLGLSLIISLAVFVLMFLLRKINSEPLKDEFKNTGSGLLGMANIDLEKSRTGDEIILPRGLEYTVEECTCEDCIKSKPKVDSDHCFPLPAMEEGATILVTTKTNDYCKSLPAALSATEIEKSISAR
# B1: cSG16.17 wild-type (antibody)
# heavy: not shown
# light: DIQMTQSPASLSASLGETVSIECLASEDISDDLAWYQQKSGKSPQVLVYTTSRLQDGVPSRFSGSGSGTRFSLKIIVMQPEDEADYFCQQTYKFPPTFGAGTRLDLKR
# notes: domain: wild-type human IgG1 heavy chain constant domains; Rat VH and VL fused to human IgG1 and kappa constants; also called chimeric SG16.17; cSG16.17 G1 WT; not shown: human kappa light chain constant domain
# B2: cSG16.17 mutant (antibody, name in EU numbering)
# heavy: QVNLLQSRAALVKPGASVKLSCEASGYTFTDYYIHWVKQSHGKSLEWIGYINPNSGYTKYNENFKTKATMTADKSTNTAYVELSRLTSEDSATYFCTRYMWERVTGFFDFWGPGTKVTVSSASTKGPSVFPLAPSSKSTSGGTAALGCLVKDYFPEPVTVSWNSGALTSGVHTFPAVLQSSGLYSLSSVVTVPSSSLGTQTYICNVNHKPSNTKVDKKVEPKSCDKTHTCPPCPAPELLGGPDVFLFPPKPKDTLMISRTPEVTCVVVDVSHEDPEVKFNWYVDGVEVHNAKTKPREEQYNSTYRVVSVLTVLHQDWLNGKEYKCKVSNKALPLPEEKTISKAKGQPREPQVYTLPPSRDELTKNQVSLTCLVKGFYPSDIAVEWESNGQPENNYKTTPPVLDSDGSFFLYSKLTVDKSRWQQGNVFSCSVMHEALHNHYTQKSLSLSPGK
# light: DIQMTQSPASLSASLGETVSIECLASEDISDDLAWYQQKSGKSPQVLVYTTSRLQDGVPSRFSGSGSGTRFSLKIIVMQPEDEADYFCQQTYKFPPTFGAGTRLDLKR
# notes: domain: human IgG1 heavy chain constant domains; Positions of the Fc mutations are EU numbers, not positions on the UniProt entry; also called cSG16.17 S239D:A330L:I332E; chimeric SG16.17 IgG1 S239D, A330L, I332E; not shown: human kappa light chain constant domain
# Experiments:
# [1] = molecular target: T1, human BCMA expressed on cells …; assay: binding to JJN3 cells
# [2] = molecular target: T2, FcγRIIIa (hCD16) on transfected CHO cells (human, UniProt P08637 17-254); assay: competition with labelled h00 on CHO cells with FcγRIIIa
# T2 construct: whole, on cells; Also expressed on Jurkat effector cells in the signalling assay; also called human FcRIIIa
# [3] = molecular target: T1, human BCMA expressed on cells …; assay: binding to U266 cells
# T2 sequence (P08637 17-254): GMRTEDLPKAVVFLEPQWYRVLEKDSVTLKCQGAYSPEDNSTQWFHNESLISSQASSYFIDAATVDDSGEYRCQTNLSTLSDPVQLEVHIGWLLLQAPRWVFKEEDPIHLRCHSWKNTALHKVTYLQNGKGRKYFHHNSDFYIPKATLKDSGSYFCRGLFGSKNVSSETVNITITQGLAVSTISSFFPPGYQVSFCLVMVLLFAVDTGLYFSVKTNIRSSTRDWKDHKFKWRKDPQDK
Binder,Kd [1] [nM],binding result [2],Kd [3] [nM]
B1,~15,binds,~10
B2,–,binds,–
